3 substances from publication PMC11828465 can be followed below.

The target in this experiment is Vps26A (UniProt O75436). Nature of the experiment: BRET titration curves in live cells. The conditions noted are these: sites S72. (In general: In BRET a luciferase serves as donor, and the signal depends on an acceptor being close.)

In the case of “Rab7A (from UniProt P51149) NEK7KO HEK293 cells”, the “other: BRET50” value (reference: wild-type HEK293 cells) is “weaker; reference 0.0022±0.0009”.

With “Rab7A (from UniProt P51149) NEK7KO HEK293 cells expressing HA–NEK7”, the “other: BRET50” value (reference: NEK7KO HEK293 cells) was “stronger; reference 0.0096±0.0039”.

On to Rab7A (from UniProt P51149) S72A, for which, for the setting “reference: wild type RlucII–Rab7A”, the “other: BRET50” value is recorded as “weaker; reference 0.0026±0.000512”.
